Experimental data as given in publication PMC6404586.

How the values were obtained:
[1] = molecular target: C3d (human) (UniProt P01024); assay: SEC; CIP and C3d loaded separately or mixed in equimolar concentration onto a Superdex column; MW from a calibration curve
[2] = molecular target: C3d (human) (UniProt P01024); assay: SPR; BIAcore X100; C3d covalently immobilised on CM5 chip (250 response units); CIP 0.0390-5 μM flowed; PBS with 0.005% Tween 20; 22°C; 1:1 Langmuir model; apparent Kd
[3] = molecular target: C3d (human) (UniProt P01024); assay: ELISA; 100 ng of C3, C3b or C3d coated; increasing concentrations of CIP; anti-CIP antibody; apparent Kd as reciprocal of fitted Ka
[4] = molecular target: complement C3 (human); assay: as above
[5] = molecular target: C3b (human) (UniProt P01024); assay: as above

UniProt P01024, sequence (P01024 1002-1303): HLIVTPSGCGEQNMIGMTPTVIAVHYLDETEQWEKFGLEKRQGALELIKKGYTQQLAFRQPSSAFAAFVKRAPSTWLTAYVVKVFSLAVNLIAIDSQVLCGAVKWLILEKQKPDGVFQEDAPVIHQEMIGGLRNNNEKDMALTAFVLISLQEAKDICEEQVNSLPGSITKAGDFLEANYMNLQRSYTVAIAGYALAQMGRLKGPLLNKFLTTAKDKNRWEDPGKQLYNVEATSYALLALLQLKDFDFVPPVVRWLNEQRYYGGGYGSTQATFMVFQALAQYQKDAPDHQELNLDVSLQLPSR

complement interfering protein (CIP) (natural protein)
stoichiometry N [1]: 1 | Kd [2]: 79 nM | koff [2]: 0.00085 s⁻¹ | kon [2]: 10800 M⁻¹ s⁻¹ | Kd [3]: 76 nM | Kd [4]: 84.8 nM | Kd [5]: 82.4 nM
